Results reported in publication PMC7058304 (PLoS ONE, 2020).

How the values were obtained:
Settings in all cases: both partners purified
[1] = target: T1, Recombinant purified human PD-1 protein, residues Leu25-Thr168, with a C-terminal 6-His tag (Homo sapiens, UniProt Q15116); test: SPR; Biacore 8K, CMD-P chip (flat); mAb captured on amine-coupled goat anti-human IgG Fc, PD-1-His monomer as analyte (100 nM top, 3-fold dilutions), 1200 s dissociation; 25 C, HBS-EP+ pH 7.4; 1:1 Langmuir fit, apparent constants
T1 construct: programmed cell death protein 1 (PD-1), human, residues Leu25-Thr168; also called programmed cell death protein 1; PD-1-His monomer; source: bought: R&D Systems (catalog# 8986-PD, lot# DDJM0417041)

[2] = target: T1, Recombinant purified human PD-1 …; test: SPR; Biacore 8K, CM5 chip (3D-hydrogel); mAb captured on amine-coupled goat anti-human IgG Fc, PD-1-His monomer as analyte (100 nM top, 3-fold dilutions), 1200 s dissociation; 25 C, HBS-EP+ pH 7.4; 1:1 Langmuir fit, apparent constants
[3] = target: T1, Recombinant purified human PD-1 …; test: SPR; Biacore 8K, C1 chip (flat); mAb captured on amine-coupled goat anti-human IgG Fc, PD-1-His monomer as analyte (100 nM top, 3-fold dilutions), 1200 s dissociation; 25 C, HBS-EP+ pH 7.4; 1:1 Langmuir fit, apparent constants; 8 mAbs measured in two independent experiments
[4] = target: T1, Recombinant purified human PD-1 …; test: SPR; Biacore 8K, CMD-200M chip (3D-hydrogel); mAb captured on amine-coupled goat anti-human IgG Fc, PD-1-His monomer as analyte (100 nM top, 3-fold dilutions), 1200 s dissociation; 25 C, HBS-EP+ pH 7.4; 1:1 Langmuir fit, apparent constants
[5] = target: T2, biotinylated His-tagged PD-1 (Homo sapiens, UniProt Q15116, biotin); test: MSD solution equilibrium titration; 100 pM biotinylated His-tagged PD-1 titrated with mAb (top 100, 50 or 10 nM binding sites), 18 h at room temperature; free antigen captured on mAb-coated MSD plates; relative KD
T2 construct: PD-1, His-tagged, biotinylated, used in the MSD experiments; probably the R&D Systems Leu25-Thr168 protein after biotinylation

[6] = target: T3, Recombinant purified human PD-1 protein, residues Leu25-Thr168, with a C-terminal 6-His tag (human, UniProt Q15116); test: SPR; Carterra LSA, CMD-P (flat) chip; mAbs captured on goat anti-human IgG Fc in a 384-spot array; PD-1-His analyte 0.5-1000 nM, 5 min association, 20 min dissociation; HBS-ET + 0.5 mg/ml BSA; 1:1 Langmuir fit; mean of spots; apparent
T3 construct: programmed cell death protein 1 (PD-1), human, residues Leu25-Thr168; monomer; the results call it wild-type or full length PD-1 against the P35-Q167 fragment; also called PD-1-His; PD-1 His-tagged monomer; source: bought: R&D Systems; not shown: His6, C-terminal, kept

[7] = target: T3, Recombinant purified human PD-1 …; test: SPR; Biacore 8K, 3D-hydrogel chips (average of CM5 and CMD-200M); mAbs captured on goat anti-human IgG Fc; PD-1 His-tagged monomer analyte 0.4-100 nM; 25 C; HBS-EP+ pH 7.4; 1:1 Langmuir fit with mass transport; apparent
[8] = target: T3, Recombinant purified human PD-1 …; test: SPR; Biacore 8K, flat chips (average of C1 and CMD-P); mAbs captured on goat anti-human IgG Fc; PD-1 His-tagged monomer analyte 0.4-100 nM; 25 C; HBS-EP+ pH 7.4; 1:1 Langmuir fit with mass transport; apparent
[9] = target: T1, Recombinant purified human PD-1 …; test: SPR; Biacore 8K, C1 chip (flat); mAb captured on amine-coupled goat anti-human IgG Fc, PD-1-His monomer as analyte (100 nM top, 3-fold dilutions), 1200 s dissociation; 25 C, HBS-EP+ pH 7.4; 1:1 Langmuir fit, apparent constants; 8 mAbs measured in two independent experiments; remark: listed apart in the source

T1 sequence (Q15116 25-168): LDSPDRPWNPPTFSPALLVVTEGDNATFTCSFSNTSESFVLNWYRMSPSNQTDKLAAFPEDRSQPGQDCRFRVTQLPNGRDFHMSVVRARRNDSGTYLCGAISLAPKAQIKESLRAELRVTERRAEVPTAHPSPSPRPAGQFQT
T3 sequence (Q15116 25-168): as above
T2 sequence (Q15116 whole entry, looked up, tested part not stated): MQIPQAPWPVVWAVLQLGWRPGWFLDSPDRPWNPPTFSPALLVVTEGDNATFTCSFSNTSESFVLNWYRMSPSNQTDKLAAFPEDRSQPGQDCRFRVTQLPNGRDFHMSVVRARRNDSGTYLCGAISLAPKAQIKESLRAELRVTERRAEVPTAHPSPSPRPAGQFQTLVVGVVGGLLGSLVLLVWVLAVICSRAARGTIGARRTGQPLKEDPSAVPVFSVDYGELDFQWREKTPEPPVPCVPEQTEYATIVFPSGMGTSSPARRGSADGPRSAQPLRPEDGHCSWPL

B1: mAb16 (antibody, V domains shown)
VH: EVQLLESGGGLVQPGGSLRLSCAASGFTFSSYDMSWVRQAPGKGLEWVSTISGGGSYTYYQDSVKGRFTISRDNSKNTLYLQMNSLRAEDTAVYYCASPYYAMDYWGQGTTVTVSS
VL: DIQLTQSPSFLSAYVGDRVTITCKASQDVGTAVAWYQQKPGKAPKLLIYWASTLHTGVPSRFSGSGSGTEFTLTISSLQPEDFATYYCQHYSSYPWTFGQGTKLEIK
notes: IgG4; also called analog of dostarlimab; dostar; source: HEK293 suspension cells, cotransfected, purified (Protein A)
With B1 the Kd [1] was 0.965 nM, the koff [1] was 0.000269 s⁻¹ and the kon [1] was 279000 M⁻¹ s⁻¹. It also gave a Kd [2] of 1.77 nM, a koff [2] of 0.000262 s⁻¹ and a kon [2] of 148000 M⁻¹ s⁻¹. For the same binder, the Kd [3] was 0.784 nM, the koff [3] was 0.000297 s⁻¹ and the kon [3] was 379000 M⁻¹ s⁻¹. The Kd [4] was 1.63 nM, the koff [4] was 0.000287 s⁻¹ and the kon [4] was 176000 M⁻¹ s⁻¹.

B2: mAb17 (analog of camrelizumab) (antibody, V domains shown)
VH: EVQLVESGGGLVQPGGSLRLSCAASGFTFSSYMMSWVRQAPGKGLEWVATISGGGANTYYPDSVKGRFTISRDNAKNSLYLQMNSLRAEDTAVYYCARQLYYFDYWGQGTTVTVSS
VL: DIQMTQSPSSLSASVGDRVTITCLASQTIGTWLTWYQQKPGKAPKLLIYTATSLADGVPSRFSGSGSGTDFTLTISSLQPEDFATYYCQQVYSIPWTFGGGTKVEIK
notes: VH; IgG4 heavy-chain constant region with stabilizing 226CPPC hinge; VL; IgG4 analog; source: HEK293 suspension cells, cotransfected, purified (Protein A)
B2 showed a Kd [5] of 0.47 nM, a Kd [6] of 4 nM and a koff [6] of 0.00073 s⁻¹. It also gave a kon [6] of 180000 M⁻¹ s⁻¹, a Kd [7] of 4.5 nM and a Kd [8] of 2.4 nM.

B3: mAb17 (antibody, V domains shown)
VH: B2 VH
VL: B2 VL
notes: IgG4; also called analog of camrelizumab; camre; source: HEK293 suspension cells, cotransfected, purified (Protein A)
In the case of B3, the Kd [1] is reported as 2.58 nM, the koff [1] is reported as 0.000497 s⁻¹ and the kon [1] is reported as 192000 M⁻¹ s⁻¹. For the same binder, the Kd [2] was 4.99 nM, the koff [2] was 0.000456 s⁻¹ and the kon [2] was 91400 M⁻¹ s⁻¹. It also gave a Kd [3] of 2.15 nM, a koff [3] of 0.000526 s⁻¹ and a kon [3] of 245000 M⁻¹ s⁻¹. For the same binder, the Kd [4] was 4.09 nM, the koff [4] was 0.000503 s⁻¹ and the kon [4] was 123000 M⁻¹ s⁻¹.

B4: mAb03 (antibody, V domains shown)
VH: QVQLQESGPGLVKPSETLSLTCTVSGFSLTSYGVHWIRQPPGKGLEWIGVIYADGSTNYNPSLKSRVTISKDTSKNQVSLKLSSVTAADTAVYYCARAYGNYWYIDVWGQGTTVTVSS
VL: DIVMTQSPDSLAVSLGERATINCKSSESVSNDVAWYQQKPGQPPKLLINYAFHRFTGVPDRFSGSGYGTDFTLTISSLQAEDVAVYYCHQAYSSPYTFGQGTKLEIK
notes: IgG4; also called analog of tislelizumab; tisle; source: HEK293 suspension cells, cotransfected, purified (Protein A)
With B4 the Kd [9] was 0.128 nM, the koff [9] was 8.72e-05 s⁻¹ and the kon [9] was 682000 M⁻¹ s⁻¹. It also gave a Kd [1] of 0.134 nM, a koff [1] of 5.77e-05 s⁻¹ and a kon [1] of 432000 M⁻¹ s⁻¹. The Kd [2] was 0.277 nM, the koff [2] was 6.03e-05 s⁻¹ and the kon [2] was 218000 M⁻¹ s⁻¹. It also gave a Kd [3] of 0.119 nM, a koff [3] of 7.54e-05 s⁻¹ and a kon [3] of 636000 M⁻¹ s⁻¹. The Kd [4] was 0.24 nM, the koff [4] was 6.16e-05 s⁻¹ and the kon [4] was 257000 M⁻¹ s⁻¹.

B5: mAb19 (analog of sasanlimab) (antibody, V domains shown)
VH: QVQLVQSGAEVKKPGASVKVSCKASGYTFTSYWINWVRQAPGQGLEWMGNIYPGSSLTNYNEKFKNRVTMTRDTSTSTVYMELSSLRSEDTAVYYCARLSTGTFAYWGQGTLVTVSS
VL: DIVMTQSPDSLAVSLGERATINCKSSQSLWDSGNQKNFLTWYQQKPGQPPKLLIYWTSYRESGVPDRFSGSGSGTDFTLTISSLQAEDVAVYYCQNDYFYPHTFGGGTKVEIK
notes: as for B2
Work on B5 yielded a Kd [5] of 0.02 nM, a Kd [6] of under 0.17 nM and a koff [6] of under 4.3e-05 s⁻¹. The kon [6] was 250000 M⁻¹ s⁻¹, the Kd [7] was under 0.3 nM and the Kd [8] was under 0.13 nM.

B6: mAb23 (antibody, V domains shown)
VH: EVQLLESGGVLVQPGGSLRLSCAASGFTFSNFGMTWVRQAPGKGLEWVSGISGGGRDTYFADSVKGRFTISRDNSKNTLYLQMNSLKGEDTAVYYCVKWGNIYFDYWGQGTLVTVSS
VL: DIQMTQSPSSLSASVGDSITITCRASLSINTFLNWYQQKPGKAPNLLIYAASSLHGGVPSRFSGSGSGTDFTLTIRTLQPEDFATYYCQQSSNTPFTFGPGTVVDFR
notes: IgG4; also called analog of cemiplimab; cemip; source: HEK293 suspension cells, cotransfected, purified (Protein A)
Work on B6 yielded a Kd [1] of 0.897 nM, a koff [1] of 0.000164 s⁻¹ and a kon [1] of 183000 M⁻¹ s⁻¹. For the same binder, the Kd [2] was 1.75 nM, the koff [2] was 0.000157 s⁻¹ and the kon [2] was 90100 M⁻¹ s⁻¹. The Kd [3] was 0.752 nM, the koff [3] was 0.000188 s⁻¹ and the kon [3] was 250000 M⁻¹ s⁻¹. The Kd [4] was 2.01 nM, the koff [4] was 0.000212 s⁻¹ and the kon [4] was 105000 M⁻¹ s⁻¹.

B7: mAb04 (analog of retifanlimab) (antibody, V domains shown)
VH: QVQLVQSGAEVKKPGASVKVSCKASGYSFTSYWMNWVRQAPGQGLEWIGVIHPSDSETWLDQKFKDRVTITVDKSTSTAYMELSSLRSEDTAVYYCAREHYGTSPFAYWGQGTLVTVSS
VL: EIVLTQSPATLSLSPGERATLSCRASESVDNYGMSFMNWFQQKPGQPPKLLIHAASNQGSGVPSRFSGSGSGTDFTLTISSLEPEDFAVYFCQQSKEVPYTFGGGTKVEIK
notes: as for B2
For B7, the Kd [5] was 0.056 nM, the Kd [6] was 0.7 nM and the koff [6] was 0.00039 s⁻¹. The kon [6] was 580000 M⁻¹ s⁻¹, the Kd [7] was 0.65 nM and the Kd [8] was 0.35 nM.

B8: mAb04 (antibody, V domains shown)
VH: B7 VH
VL: B7 VL
notes: IgG4; also called analog of retifanlimab; retifan; source: HEK293 suspension cells, cotransfected, purified (Protein A)
B8 was tested, and the Kd [9] was 0.297 nM, the koff [9] was 0.000277 s⁻¹ and the kon [9] was 933000 M⁻¹ s⁻¹. It also gave a Kd [1] of 0.387 nM, a koff [1] of 0.000235 s⁻¹ and a kon [1] of 608000 M⁻¹ s⁻¹. The Kd [2] was 0.717 nM, the koff [2] was 0.000235 s⁻¹ and the kon [2] was 328000 M⁻¹ s⁻¹. For the same binder, the Kd [3] was 0.307 nM, the koff [3] was 0.000269 s⁻¹ and the kon [3] was 877000 M⁻¹ s⁻¹. It also gave a Kd [4] of 0.582 nM, a koff [4] of 0.000253 s⁻¹ and a kon [4] of 435000 M⁻¹ s⁻¹.

B9: mAb21 (analog of sintilimab) (antibody, V domains shown)
VH: QVQLVQSGAEVKKPGSSVKVSCKASGGTFSSYAISWVRQAPGQGLEWMGLIIPMFDTAGYAQKFQGRVAITVDESTSTAYMELSSLRSEDTAVYYCARAEHSSTGTFDYWGQGTLVTVSS
VL: DIQMTQSPSSVSASVGDRVTITCRASQGISSWLAWYQQKPGKAPKLLISAASSLQSGVPSRFSGSGSGTDFTLTISSLQPEDFATYYCQQANHLPFTFGGGTKVEIK
notes: as for B2
B9 gave a Kd [5] of 0.028 nM, a Kd [6] of under 0.13 nM and a koff [6] of under 4.3e-05 s⁻¹. It also gave a kon [6] of 330000 M⁻¹ s⁻¹, a Kd [7] of under 0.21 nM and a Kd [8] of under 0.12 nM.
